# In IntAct's records for PubMed 20543827:
# B1: Retinoic acid receptor alpha (Homo sapiens), P10276 (parent)
# chain: MASNSSSCPTPGGGHLNGYPVPPYAFFFPPMLGGLSPPGALTTLQHQLPVSGYSTPSPATIETQSSSSEEIVPSPPSPPPLPRIYKPCFVCQDKSSGYHYGVSACEGCKGFFRRSIQKNMVYTCHRDKNCIINKVTRNRCQYCRLQKCFEVGMSKESVRNDRNKKKKEVPKPECSESYTLTPEVGELIEKVRKAHQETFPALCQLGKYTTNNSSEQRVSLDIDLWDKFSELSTKCIIKTVEFAKQLPGFTTLTIADQITLLKAACLDILILRICTRYTPEQDTMTFSDGLTLNRTQMHNAGFGPLTDLVFAFANQLLPLEMDDAETGLLSAICLICGDRQDLEQPDRVDMLQEPLLEALKVYVRKRRPSRPHMFPKMLMKITDLRSISAKGAERVITLKMEIPGSMPPLIQEMLENSEGLDTLSGQPGGGGRDGGGLAPPPGSCSPSLSPSSNRSSPATHSP
# Variants of: B1
# Details: with ncor1_human NCOR1, O75376
# Chain of ncor1_human NCOR1, O75376 (O75376 whole entry): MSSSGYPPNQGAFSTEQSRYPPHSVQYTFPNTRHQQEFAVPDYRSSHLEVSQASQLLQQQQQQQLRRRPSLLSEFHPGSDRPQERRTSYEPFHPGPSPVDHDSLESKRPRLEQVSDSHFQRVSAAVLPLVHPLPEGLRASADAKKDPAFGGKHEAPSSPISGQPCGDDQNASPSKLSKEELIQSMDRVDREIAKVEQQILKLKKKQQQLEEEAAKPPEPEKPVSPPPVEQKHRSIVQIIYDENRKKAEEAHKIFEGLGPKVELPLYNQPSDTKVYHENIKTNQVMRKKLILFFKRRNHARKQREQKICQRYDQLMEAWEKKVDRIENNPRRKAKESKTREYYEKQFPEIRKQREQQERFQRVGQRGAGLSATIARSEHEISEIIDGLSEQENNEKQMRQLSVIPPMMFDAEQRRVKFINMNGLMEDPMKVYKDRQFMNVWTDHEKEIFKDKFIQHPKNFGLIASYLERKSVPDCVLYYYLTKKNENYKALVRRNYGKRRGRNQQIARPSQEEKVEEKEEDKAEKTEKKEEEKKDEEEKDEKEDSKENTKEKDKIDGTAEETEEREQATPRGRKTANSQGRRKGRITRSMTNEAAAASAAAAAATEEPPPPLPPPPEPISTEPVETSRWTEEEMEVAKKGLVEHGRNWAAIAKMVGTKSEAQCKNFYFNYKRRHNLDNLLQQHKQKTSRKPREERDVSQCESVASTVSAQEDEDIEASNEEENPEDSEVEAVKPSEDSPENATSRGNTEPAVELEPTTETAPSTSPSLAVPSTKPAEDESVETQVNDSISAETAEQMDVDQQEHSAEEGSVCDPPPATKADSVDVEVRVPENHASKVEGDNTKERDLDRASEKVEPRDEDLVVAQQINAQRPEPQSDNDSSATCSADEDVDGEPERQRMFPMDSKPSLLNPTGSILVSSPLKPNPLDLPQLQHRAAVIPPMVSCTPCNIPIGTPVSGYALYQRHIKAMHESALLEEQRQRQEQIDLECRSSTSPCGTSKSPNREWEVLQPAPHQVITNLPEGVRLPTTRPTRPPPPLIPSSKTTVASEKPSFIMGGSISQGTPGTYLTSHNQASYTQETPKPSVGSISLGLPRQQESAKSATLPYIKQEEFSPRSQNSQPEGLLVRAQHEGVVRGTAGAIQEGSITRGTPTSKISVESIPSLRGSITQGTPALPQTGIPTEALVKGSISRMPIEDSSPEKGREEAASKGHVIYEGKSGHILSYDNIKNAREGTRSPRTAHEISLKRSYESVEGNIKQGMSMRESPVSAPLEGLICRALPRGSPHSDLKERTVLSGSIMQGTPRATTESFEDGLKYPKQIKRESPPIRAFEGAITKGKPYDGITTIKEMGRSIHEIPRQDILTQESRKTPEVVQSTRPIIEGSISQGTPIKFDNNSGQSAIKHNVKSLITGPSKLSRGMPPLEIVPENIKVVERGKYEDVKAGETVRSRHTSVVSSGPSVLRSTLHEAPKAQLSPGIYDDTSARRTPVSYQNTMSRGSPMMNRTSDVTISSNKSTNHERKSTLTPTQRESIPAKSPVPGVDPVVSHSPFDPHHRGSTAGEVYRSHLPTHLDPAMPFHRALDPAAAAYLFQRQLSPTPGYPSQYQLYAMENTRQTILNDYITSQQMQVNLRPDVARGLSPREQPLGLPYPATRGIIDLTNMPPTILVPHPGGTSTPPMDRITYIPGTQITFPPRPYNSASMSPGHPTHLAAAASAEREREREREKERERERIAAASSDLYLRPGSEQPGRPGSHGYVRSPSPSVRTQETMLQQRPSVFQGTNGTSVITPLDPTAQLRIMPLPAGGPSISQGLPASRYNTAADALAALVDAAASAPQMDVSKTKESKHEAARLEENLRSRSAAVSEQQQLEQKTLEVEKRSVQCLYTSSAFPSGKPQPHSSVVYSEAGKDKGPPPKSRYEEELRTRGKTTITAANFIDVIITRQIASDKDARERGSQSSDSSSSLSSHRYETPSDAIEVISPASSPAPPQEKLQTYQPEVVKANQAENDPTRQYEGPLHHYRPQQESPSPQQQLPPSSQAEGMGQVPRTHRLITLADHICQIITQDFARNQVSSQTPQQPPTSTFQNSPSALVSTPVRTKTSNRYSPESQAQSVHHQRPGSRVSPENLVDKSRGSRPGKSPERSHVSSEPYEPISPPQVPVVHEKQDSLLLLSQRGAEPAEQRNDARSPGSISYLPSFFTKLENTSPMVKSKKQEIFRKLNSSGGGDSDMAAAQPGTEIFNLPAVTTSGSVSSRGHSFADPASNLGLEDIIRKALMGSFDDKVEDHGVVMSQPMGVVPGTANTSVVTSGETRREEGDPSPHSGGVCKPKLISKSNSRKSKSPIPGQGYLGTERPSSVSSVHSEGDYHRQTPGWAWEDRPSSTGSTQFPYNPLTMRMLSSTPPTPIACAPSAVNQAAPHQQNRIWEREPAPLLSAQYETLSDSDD
row,Variant,effect of a mutation on the interaction
1,MASNSSSCPTPGGGHLNGYPVPPYAFFFPPMLGGLSPPGALTTLQHQLPVSGYSTPSPATIETQSSSSEEIVPSPPSPPPLPRIYKPCFVCQDKSSGYHYGVSACEGCKGFFRRSIQKNMVYTCHRDKNCIINKVTRNRCQYCRLQKCFEVGMSKESVRNDRNKKKKEVPKPECSESYTLTPEVGELIEKVRKAHQETFPALCQLGKYTTNNSSEQRVSLDIDLWDKFSELSTKCIIKTVEFAKQLPGFTTLTIADQITLLKAACLDILILRICTRYTPEQDTMTFSDGLTLNRTQMHNAGFGPLTDLVFAFANQLLPLEMDDAETGLLSAICLICGDRQDLEQPDRVDMLQEPLLEALKVYVRKRRPSRPHMFPKMLMKITDLRSISAKGAERVETLKMEIPGSMPPLIQEMLENSEGLDTLSGQPGGGGRDGGGLAPPPGSCSPSLSPSSNRSSPATHSP [I396E],decreasing interaction

# Variants of: B1
# Details: with ncor1_mouse Ncor1, Q60974
row,Variant,effect of a mutation on the interaction
1,MASNSSSCPTPGGGHLNGYPVPPYAFFFPPMLGGLSPPGALTTLQHQLPVSGYSTPSPATIETQSSSSEEIVPSPPSPPPLPRIYKPCFVCQDKSSGYHYGVSACEGCKGFFRRSIQKNMVYTCHRDKNCIINKVTRNRCQYCRLQKCFEVGMSKESVRNDRNKKKKEVPKPECSESYTLTPEVGELIEKVRKAHQETFPALCQLGKYTTNNSSEQRVSLDIDLWDKFSELSTKCIIKTVEFAKQLPGFTTLTIADQITLLKAACLDILILRICTRYTPEQDTMTFSDGLTLNRTQMHNAGFGPLTDLVFAFANQLLPLEMDDAETGLLSAICLICGDRQDLEQPDRVDMLQEPLLEALKVYVRKRRPSRPHMFPKMLMKITDLRSISAKGAERVETLKMEIPGSMPPLIQEMLENSEGLDTLSGQPGGGGRDGGGLAPPPGSCSPSLSPSSNRSSPATHSP [I396E],disrupting interaction

# Variants of: B1
# Details: with ncor2_human NCOR2, Q9Y618
# Chain of ncor2_human NCOR2, Q9Y618 (Q9Y618 whole entry): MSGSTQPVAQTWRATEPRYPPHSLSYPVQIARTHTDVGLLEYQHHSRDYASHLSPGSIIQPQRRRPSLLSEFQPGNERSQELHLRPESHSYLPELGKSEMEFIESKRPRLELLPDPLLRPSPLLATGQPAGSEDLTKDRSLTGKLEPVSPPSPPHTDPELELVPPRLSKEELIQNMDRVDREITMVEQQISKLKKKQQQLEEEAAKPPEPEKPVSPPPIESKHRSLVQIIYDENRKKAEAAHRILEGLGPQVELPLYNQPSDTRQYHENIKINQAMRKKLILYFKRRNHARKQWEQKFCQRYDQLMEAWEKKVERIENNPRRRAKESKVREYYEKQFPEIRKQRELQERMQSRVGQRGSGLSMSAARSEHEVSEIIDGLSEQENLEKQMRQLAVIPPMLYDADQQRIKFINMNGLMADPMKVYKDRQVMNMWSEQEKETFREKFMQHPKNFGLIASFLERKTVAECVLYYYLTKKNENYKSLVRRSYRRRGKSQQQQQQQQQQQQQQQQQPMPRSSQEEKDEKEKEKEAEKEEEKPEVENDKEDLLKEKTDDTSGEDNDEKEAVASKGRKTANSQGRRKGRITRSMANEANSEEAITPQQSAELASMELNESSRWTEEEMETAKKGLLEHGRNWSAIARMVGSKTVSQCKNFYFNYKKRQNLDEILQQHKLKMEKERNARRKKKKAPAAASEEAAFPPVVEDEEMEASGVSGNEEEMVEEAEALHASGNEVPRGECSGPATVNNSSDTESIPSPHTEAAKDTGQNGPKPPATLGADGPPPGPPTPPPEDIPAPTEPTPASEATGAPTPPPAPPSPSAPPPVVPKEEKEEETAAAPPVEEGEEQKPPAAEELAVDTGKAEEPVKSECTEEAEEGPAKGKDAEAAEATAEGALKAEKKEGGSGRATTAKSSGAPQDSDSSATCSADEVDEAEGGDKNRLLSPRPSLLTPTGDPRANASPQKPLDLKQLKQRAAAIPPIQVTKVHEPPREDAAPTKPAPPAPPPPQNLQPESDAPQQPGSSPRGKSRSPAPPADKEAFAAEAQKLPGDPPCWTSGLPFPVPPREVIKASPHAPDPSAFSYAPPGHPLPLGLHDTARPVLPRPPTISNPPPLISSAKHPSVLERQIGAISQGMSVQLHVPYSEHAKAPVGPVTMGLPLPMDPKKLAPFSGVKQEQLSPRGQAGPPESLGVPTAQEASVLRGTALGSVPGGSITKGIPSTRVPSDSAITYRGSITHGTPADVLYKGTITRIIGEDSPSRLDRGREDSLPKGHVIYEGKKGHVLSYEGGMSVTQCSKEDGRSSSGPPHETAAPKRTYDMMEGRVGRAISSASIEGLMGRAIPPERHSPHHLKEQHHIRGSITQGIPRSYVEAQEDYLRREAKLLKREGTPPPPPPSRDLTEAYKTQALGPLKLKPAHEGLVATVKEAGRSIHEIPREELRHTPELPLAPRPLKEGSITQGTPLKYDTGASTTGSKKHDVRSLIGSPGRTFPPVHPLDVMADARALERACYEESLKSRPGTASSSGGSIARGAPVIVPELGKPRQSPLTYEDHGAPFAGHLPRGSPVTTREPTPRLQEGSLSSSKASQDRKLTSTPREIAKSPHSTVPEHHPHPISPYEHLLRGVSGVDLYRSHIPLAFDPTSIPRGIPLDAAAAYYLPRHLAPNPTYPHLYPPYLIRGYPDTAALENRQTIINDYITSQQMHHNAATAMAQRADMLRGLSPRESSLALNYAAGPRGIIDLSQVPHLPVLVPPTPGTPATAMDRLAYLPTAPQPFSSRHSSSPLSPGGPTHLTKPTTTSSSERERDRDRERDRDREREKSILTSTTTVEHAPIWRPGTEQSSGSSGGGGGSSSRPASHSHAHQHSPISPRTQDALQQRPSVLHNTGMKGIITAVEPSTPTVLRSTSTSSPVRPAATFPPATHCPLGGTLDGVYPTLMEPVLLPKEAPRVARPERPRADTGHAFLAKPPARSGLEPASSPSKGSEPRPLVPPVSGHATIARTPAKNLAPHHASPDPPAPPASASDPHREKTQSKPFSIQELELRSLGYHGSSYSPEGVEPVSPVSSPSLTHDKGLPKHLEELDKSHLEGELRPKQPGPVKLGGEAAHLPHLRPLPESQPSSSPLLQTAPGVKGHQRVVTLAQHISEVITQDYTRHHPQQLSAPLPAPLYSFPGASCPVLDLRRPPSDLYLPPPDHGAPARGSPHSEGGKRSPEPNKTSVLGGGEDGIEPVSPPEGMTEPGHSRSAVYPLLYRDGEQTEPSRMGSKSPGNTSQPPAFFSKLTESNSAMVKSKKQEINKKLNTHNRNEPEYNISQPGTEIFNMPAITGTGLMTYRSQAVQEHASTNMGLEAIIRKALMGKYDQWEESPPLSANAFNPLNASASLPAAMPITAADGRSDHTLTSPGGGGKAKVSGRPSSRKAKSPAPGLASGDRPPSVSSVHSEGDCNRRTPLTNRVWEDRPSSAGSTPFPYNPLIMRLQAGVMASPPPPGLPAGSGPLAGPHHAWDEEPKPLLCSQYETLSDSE
row,Variant,effect of a mutation on the interaction
1,MASNSSSCPTPGGGHLNGYPVPPYAFFFPPMLGGLSPPGALTTLQHQLPVSGYSTPSPATIETQSSSSEEIVPSPPSPPPLPRIYKPCFVCQDKSSGYHYGVSACEGCKGFFRRSIQKNMVYTCHRDKNCIINKVTRNRCQYCRLQKCFEVGMSKESVRNDRNKKKKEVPKPECSESYTLTPEVGELIEKVRKAHQETFPALCQLGKYTTNNSSEQRVSLDIDLWDKFSELSTKCIIKTVEFAKQLPGFTTLTIADQITLLKAACLDILILRICTRYTPEQDTMTFSDGLTLNRTQMHNAGFGPLTDLVFAFANQLLPLEMDDAETGLLSAICLICGDRQDLEQPDRVDMLQEPLLEALKVYVRKRRPSRPHMFPKMLMKITDLRSISAKGAERVETLKMEIPGSMPPLIQEMLENSEGLDTLSGQPGGGGRDGGGLAPPPGSCSPSLSPSSNRSSPATHSP [I396E],disrupting interaction

# Variants of: B1
# Details: with ncor2_human NCOR2, Q9Y618
# Remark: another data set of the same source
row,Variant,effect of a mutation on the interaction
1,MASNSSSCPTPGGGHLNGYPVPPYAFFFPPMLGGLSPPGALTTLQHQLPVSGYSTPSPATIETQSSSSEEIVPSPPSPPPLPRIYKPCFVCQDKSSGYHYGVSACEGCKGFFRRSIQKNMVYTCHRDKNCIINKVTRNRCQYCRLQKCFEVGMSKESVRNDRNKKKKEVPKPECSESYTLTPEVGELIEKVRKAHQETFPALCQLGKYTTNNSSEQRVSLDIDLWDKFSELSTKCIIKTVEFAKQLPGFTTLTIADQITLLKAACLDILILRICTRYTPEQDTMTFSDGLTLNRTQMHNAGFGPLTDLVFAFANQLLPLEMDDAETGLLSAICLICGDRQDLEQPDRVDMLQEPLLEALKVYVRKRRPSRPHMFPKMLMKITDLRSISAKGAERVETLKMEIPGSMPPLIQEMLENSEGLDTLSGQPGGGGRDGGGLAPPPGSCSPSLSPSSNRSSPATHSP [I396E],decreasing interaction
